In patent publication US10239937:

Legend:
[1] = molecular target: C3 fragments (iC3b, C3dg and C3d) of human complement component C3, deposited on cells or tissue (human) (UniProt P01024); assay: flow cytometry, rabbit RBCs + human serum + TT30 0.46 µM, time 0, panel A8-2-0 [Time: 0]
[2] = molecular target: C3 fragments (iC3b, C3dg and C3d) of human complement component C3, deposited on cells or tissue (human) (UniProt P01024); assay: flow cytometry, rabbit RBCs + human serum + TT30 0.46 µM, 2 hr, panel A8-2-3 [Time: 2 hr]
[3] = molecular target: C3 fragments (iC3b, C3dg and C3d) of human complement component C3, deposited on cells or tissue (human) (UniProt P01024); assay: flow cytometry, rabbit RBCs + human serum + TT30 0.06 µM, time 0, panel A11-3-0 [Time: 0]
[4] = molecular target: C3 fragments (iC3b, C3dg and C3d) of human complement component C3, deposited on cells or tissue (human) (UniProt P01024); assay: flow cytometry, rabbit RBCs + human serum + TT30 0.46 µM, 4 hr, panel A8-4-3 [Time: 4 hr]
[5] = molecular target: C3 fragments (iC3b, C3dg and C3d) of human complement component C3, deposited on cells or tissue (human) (UniProt P01024); assay: flow cytometry, rabbit RBCs + human serum + TT30 0.46 µM, 24 hr, panel A8-24-2 [Time: 24 hr]
[6] = molecular target: C3 fragments (iC3b, C3dg and C3d) of human complement component C3, deposited on cells or tissue (human) (UniProt P01024); assay: flow cytometry, rabbit RBCs + human serum + TT30 0.46 µM, 4 hr, panel A8-4-2 [Time: 4 hr]
[7] = molecular target: C3 fragments (iC3b, C3dg and C3d) of human complement component C3, deposited on cells or tissue (human) (UniProt P01024); assay: flow cytometry, rabbit RBCs + human serum, no TT30, panel A12-3-0
[8] = molecular target: C3 fragments (iC3b, C3dg and C3d) of human complement component C3, deposited on cells or tissue (human) (UniProt P01024); assay: flow cytometry, rabbit RBCs + human serum + TT30 0.06 µM, time 0, panel A11-2-0 [Time: 0]
[9] = molecular target: C3 fragments (iC3b, C3dg and C3d) of human complement component C3, deposited on cells or tissue (human) (UniProt P01024); assay: flow cytometry, rabbit RBCs + human serum + TT30 0.46 µM, 2 hr, panel A8-2-2 [Time: 2 hr]
[10] = molecular target: C3 fragments (iC3b, C3dg and C3d) of human complement component C3, deposited on cells or tissue (human) (UniProt P01024); assay: flow cytometry, rabbit RBCs + human serum + TT30 0.46 µM, 24 hr, panel A8-24-3 [Time: 24 hr]
[11] = molecular target: C3 fragments (iC3b, C3dg and C3d) of human complement component C3, deposited on cells or tissue (human) (UniProt P01024); assay: flow cytometry, rabbit RBCs + human serum + TT30 3.7 µM, time 0, panel A2-2-0; filing: no C3 fragments or TT30 on the cells at this concentration [Time: 0]
[12] = molecular target: C3 fragments (iC3b, C3dg and C3d) of human complement component C3, deposited on cells or tissue (human) (UniProt P01024); assay: flow cytometry, rabbit RBCs + human serum + TT30 1.4 µM, time 0, panel A5-2-0 [Time: 0]
[13] = molecular target: C3 fragments (iC3b, C3dg and C3d) of human complement component C3, deposited on cells or tissue (human) (UniProt P01024); assay: flow cytometry, rabbit RBCs + human serum + TT30 3.7 µM, time 0, panel A2-3-0; filing: no C3 fragments or TT30 on the cells at this concentration [Time: 0]
[14] = molecular target: C3 fragments (iC3b, C3dg and C3d) of human complement component C3, deposited on cells or tissue (human) (UniProt P01024); assay: flow cytometry, rabbit RBCs + human serum + TT30 0.46 µM, time 0, panel A8-3-0 [Time: 0]
[15] = molecular target: C3 fragments (iC3b, C3dg and C3d) of human complement component C3, deposited on cells or tissue (human) (UniProt P01024); assay: flow cytometry, rabbit RBCs + human serum, no TT30, panel A12-2-0
[16] = molecular target: C3 fragments (iC3b, C3dg and C3d) of human complement component C3, deposited on cells or tissue (human) (UniProt P01024); assay: flow cytometry, rabbit RBCs + human serum + TT30 1.4 µM, time 0, panel A5-3-0 [Time: 0]
[17] = molecular target: C3 fragments (iC3b, C3dg and C3d) of human complement component C3, deposited on cells or tissue (human) (UniProt P01024); assay: flow cytometry, rabbit RBCs + human serum + TT30 1.4 µM, time 0, panel A5-1-0; isotype control for anti-C3d [Time: 0]
TT30 (human) [18] = assay: flow cytometry, rabbit RBCs + human serum + TT30 0.46 µM, 2 hr, panel A8-2-2; isotype control for HB5 [Time: 2 hr]
Chain of TT30 (human) (chain, as listed by the source limits assumed): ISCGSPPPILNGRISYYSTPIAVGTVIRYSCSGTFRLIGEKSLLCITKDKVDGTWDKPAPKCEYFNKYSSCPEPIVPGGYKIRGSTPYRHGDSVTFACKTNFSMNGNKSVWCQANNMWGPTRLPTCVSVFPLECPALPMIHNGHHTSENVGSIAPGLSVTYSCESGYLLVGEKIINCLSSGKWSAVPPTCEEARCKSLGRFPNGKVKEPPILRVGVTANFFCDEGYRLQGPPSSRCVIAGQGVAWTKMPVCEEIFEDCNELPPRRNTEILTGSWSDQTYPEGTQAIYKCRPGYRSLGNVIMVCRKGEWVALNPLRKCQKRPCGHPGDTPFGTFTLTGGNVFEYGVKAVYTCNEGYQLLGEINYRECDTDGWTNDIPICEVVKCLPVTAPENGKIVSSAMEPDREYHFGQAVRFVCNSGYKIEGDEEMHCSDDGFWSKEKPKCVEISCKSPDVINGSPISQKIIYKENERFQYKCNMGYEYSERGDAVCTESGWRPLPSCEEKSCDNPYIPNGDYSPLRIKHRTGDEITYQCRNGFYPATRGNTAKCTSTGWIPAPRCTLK

TT30 (human) [19] = assay: flow cytometry, rabbit RBCs + human serum + TT30 0.46 µM, 24 hr, panel A8-24-2; isotype control for HB5 [Time: 24 hr]
TT30 (human) [20] = assay: flow cytometry, rabbit RBCs + human serum + TT30 1.4 µM, time 0, panel A5-2-0; isotype control for HB5 [Time: 0]
TT30 (human) [21] = assay: flow cytometry, rabbit RBCs + human serum + TT30 0.46 µM, 4 hr, panel A8-4-2; isotype control for HB5 [Time: 4 hr]

Chain of UniProt P01024 (P01024 1002-1303 limits assumed): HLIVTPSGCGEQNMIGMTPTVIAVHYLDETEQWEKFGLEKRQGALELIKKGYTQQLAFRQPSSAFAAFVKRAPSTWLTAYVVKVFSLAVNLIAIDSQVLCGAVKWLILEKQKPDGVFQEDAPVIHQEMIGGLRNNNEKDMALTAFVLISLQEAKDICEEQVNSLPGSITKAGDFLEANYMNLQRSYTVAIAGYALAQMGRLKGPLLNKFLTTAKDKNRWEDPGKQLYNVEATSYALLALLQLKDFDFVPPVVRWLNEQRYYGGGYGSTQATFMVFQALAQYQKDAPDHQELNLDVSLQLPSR

Substance: C3d (A702)-APC (antibody)
- % of gated cells in Q4-UL (C3d-APC+, IgG2a-FITC-) [1]: 84.8%
- % of gated cells in Q4-UR (C3d-APC+, IgG2a-FITC+) [1]: 0%
- % of gated cells in Q4-UL (C3d-APC+, HB5-FITC-) [2]: 25.3%
- % of gated cells in Q4-UR (C3d-APC+, HB5-FITC+) [2]: 67.5%
- % of gated cells in Q4-UL (C3d-APC+, HB5-FITC-) [3]: 78.9%
- % of gated cells in Q4-UR (C3d-APC+, HB5-FITC+) [3]: 5.3%
- % of gated cells in Q4-UL (C3d-APC+, HB5-FITC-) [4]: 38.2%
- % of gated cells in Q4-UR (C3d-APC+, HB5-FITC+) [4]: 54.7%
- % of gated cells in Q4-UL (C3d-APC+, IgG2a-FITC-) [5]: 97.9%
- % of gated cells in Q4-UR (C3d-APC+, IgG2a-FITC+) [5]: 0.3%
- % of gated cells in Q4-UL (C3d-APC+, IgG2a-FITC-) [6]: 93.4%
- % of gated cells in Q4-UR (C3d-APC+, IgG2a-FITC+) [6]: 0%
- % of gated cells in Q4-UL (C3d-APC+, HB5-FITC-) [7]: 94.9%
- % of gated cells in Q4-UR (C3d-APC+, HB5-FITC+) [7]: 2.6%
- % of gated cells in Q4-UL (C3d-APC+, IgG2a-FITC-) [8]: 90.3%
- % of gated cells in Q4-UR (C3d-APC+, IgG2a-FITC+) [8]: 0%
- % of gated cells in Q4-UL (C3d-APC+, IgG2a-FITC-) [9]: 89.8%
- % of gated cells in Q4-UR (C3d-APC+, IgG2a-FITC+) [9]: 0.3%
- % of gated cells in Q4-UL (C3d-APC+, HB5-FITC-) [10]: 51.7%
- % of gated cells in Q4-UR (C3d-APC+, HB5-FITC+) [10]: 44.4%
- % of gated cells in Q4-UL (C3d-APC+, IgG2a-FITC-) [11]: 2.4%
- % of gated cells in Q4-UR (C3d-APC+, IgG2a-FITC+) [11]: 0%
- % of gated cells in Q4-UL (C3d-APC+, IgG2a-FITC-) [12]: 84.9%
- % of gated cells in Q4-UR (C3d-APC+, IgG2a-FITC+) [12]: 0%
- % of gated cells in Q4-UL (C3d-APC+, HB5-FITC-) [13]: 0%
- % of gated cells in Q4-UR (C3d-APC+, HB5-FITC+) [13]: 0%
- % of gated cells in Q4-UL (C3d-APC+, HB5-FITC-) [14]: 11.5%
- % of gated cells in Q4-UR (C3d-APC+, HB5-FITC+) [14]: 69.8%
- % of gated cells in Q4-UL (C3d-APC+, IgG2a-FITC-) [15]: 100%
- % of gated cells in Q4-UR (C3d-APC+, IgG2a-FITC+) [15]: 0%
- % of gated cells in Q4-UL (C3d-APC+, HB5-FITC-) [16]: 81%
- % of gated cells in Q4-UR (C3d-APC+, HB5-FITC+) [16]: 4%

Substance: IgG1-APC (antibody)
- % of gated cells in Q4-UR (IgG1-APC+, HB5-FITC+) [17]: 0.4%

Substance: IgG2a-FITC (antibody)
- % of gated cells in Q4-LR (C3d-APC-, IgG2a-FITC+) (TT30 (human) [18]): 0.3%
- % of gated cells in Q4-UR (C3d-APC+, IgG2a-FITC+) (TT30 (human) [18]): 0.3%
- % of gated cells in Q4-LR (C3d-APC-, IgG2a-FITC+) (TT30 (human) [19]): 0.3%
- % of gated cells in Q4-UR (C3d-APC+, IgG2a-FITC+) (TT30 (human) [19]): 0.3%
- % of gated cells in Q4-LR (C3d-APC-, IgG2a-FITC+) (TT30 (human) [20]): 0.5%
- % of gated cells in Q4-LR (C3d-APC-, IgG2a-FITC+) (TT30 (human) [21]): 0.3%
